This note sets out measurements from article PMC6441497.

For the series, the system named is Pho4 (yeast). Briefly: EMSA. As to conditions: EMSA: 10 mM Tris-HCl pH 7.6, 1 mM MgCl2, 60 mM KCl, 3 mg/ml BSA, 1% glycerol, 1% Ficoll, 1 mM DTT, 1 ug poly(dI-dC), 100 ng calf thymus DNA, 20 ul, 10 min …. (Mobility shift assays separate free from complexed probe on a gel.)

In the case of 601 free DNA with Pho4 site, the equilibrium dissociation constant (Kd) (usually a measure of binding affinity in units of concentration) was determined as 240 nM.
